Assay: soluble on expression in E. coli; label from the status in PepcDB or PDB records
For “MGSDKIHHHHHHMSGIINNREYRQKVLKEIILELHNGKSVDEVRKRFQELIKGVSTKEISEMEAQLIKEGMKVEEIQRLCDVHAAVFKGSIDQIHHPEKEEGHPVSVLKKENEAVKNYIQSHLTPNLEEIKKSDSHSTRLKLMENISMLFDLDKHYSRKENLIFPYLEKYGITAPPKVMWGVDDEIREALKECKEVINSANKTPNEITEKVESTLKRIEEMIFKEESILLPMCIDTFSEDEWLDIESESDEIGYCLISPSEKWKPKRENVEEKEKSKLANENSEGYIKFDTGILRVNELSAILDTLPLDITFVDKDGTVKYFSGGSERIFARTRAVIGRKVQNCHPPASVHIVEKVVEDLKSGKKDHEDFWLHMGELYVFIRYYAVKDNKGEFIGVLEVTQNIKEIQEITGEKRLIE”, the “soluble on expression in E. coli” value was “not soluble”. For “MSQLYAQEPRLGIPDSMLRYGTVVTMEQGDTVYDIALPQVWVKHKKYKSRQLTPQERQELWRLIRDVKRTLPYAKMIAATLIETYEYMETMPDEKSRQKHLKRMEKEMKQQYMPEMKRLTLRQGKLLIKLIDRQCAQSSYQLLKAFLGGWKAGWWNLFARFYGASLKTRYEPDKNPEDALTERIVLLVEEKRI”, the “soluble on expression in E. coli” value was “not soluble”. With “MSPIMARKPQIQAEQLAQKFVEKPEEQKDKQAVQKGQQLEGAKRWVADSELREQPVNSMQQVEHGPKAVILADDACWQTQRRVPAEIQLPQVGKISIPELSEKEIQRTIVAQPASYHKVQWNEFPEEPKYEIGAVPKTKTQDWVPVNNEQNELQRSIYKPARMSAVWPPPQDELVKDGHSPLVVKANEDTAWIQQDQNGVLKQAVWGKTSRINRVWPPPENESTLSDFGPQHMPVVQWPPPEAEAHEREQVEVLQKHIPTKKMERQWPPPPPQYQVVESSGEIETRYNPAEVDQQQQAVNSLRMGHIQA” the “soluble on expression in E. coli” value was “not soluble”. In the case of “EPKLDMNKQKISPAEVAKHNKPDDCWVVINGYVYDLTRFLPNHPGGQDVIKFNAGKDVTAIFEPLHAPNVIDKYIAPEKKLGPLQGSMPPELVCPPYAPGETKEDIARKEQLKSLLPPLDNIINLYDFEYLASQTLTKQAWAYYSSGANDEVTHRENHNAYHRIFFKPKILVDVRKVDISTDMLGSHVDVPFYVSATALCKLGNPLEGEKDVARGCGQGVTKVPQMISTLASCSPEEIIEAAPSDKQIQWYQLYVNSDRKITDDLVKNVEKLGVKALFVTVDAPSLGQREKDMKLKFSNTKAGPKAMKKTNVEESQGASRALSKFIDPSLTWKDIEELKKKTKLPIVIKGVQRTEDVIKAAEIGVSGVVLSNHGGRQLDFSRAPIEVLAETMPILEQRNLKDKLEVFVDGGVRRGTDVLKALCLGAKGVGLGRPFLYANSCYGRNGVEKAIEILRDEIEMSMRLLGVTSIAELKPDLLDLSTLKARTVGVPNDVLYNEVYEGPTLTEFEDA”, the “soluble on expression in E. coli” value is reported as “soluble”. In the case of “MENQAALCVLLSDRANTHAHIFVHPHFLSFTLTKSCFCCGNLIYWFVTLYLNFRSRKKSEKMRSRSGSGVRLDRILFMVEQTICSHQNPITALFANQKDFPGHAWVRDNVYIAQALWALYRAYMKCADFDEDLTKAKELGFTCVKMMQSILECLMRQAEKVELFKKYQRPLDALHSKFAVGTKGTVCGDADWGHLQMDAISLYLLTLAQITASGLQVVRNFDEVAFIQNLVYYIETGYRTPDYGVWERGDKTNQGIRELNASSIGMVKAALQALNDVGDLFVDGSRGSVVHVLPDEIEQCSAVLSSMLPRESFSKETDAALLGIISYPAFCVEDPELVSQTRETITQRLLGKYGCRRFMRDGYKTVLEDASRLYYNKSELQQFEDIECEWPIFLCYLILDAMYSKDDDAVEAYWRQLESVLVLSDKGFRLVPELYVVLKEHVSAEKAHPGTQDRVPGGATPFLWAQSLYVIICLLYEGFLLPAELDPLSRRLSVYEKRPPCEVQVTVLAESLDVQRELRAHDIHVQCVDEIDPVFTILPASALGQLLAKIGESKKLNLSGRPLDRPIGLLSTSRLYQIGNKFVIFTPQFMDSRRSHLMYDIRILTDEWSSELQYIYASWNSVSISGRPLVVLVITQGMLSTEGLSHFSNIHLNRHMKSTVIGAIKKINTGYLSGARVVMKDLSDFFRTTAVSKMEFRDKSAEDTLRSVAAEKVQFTLLTEDATEAKNEKITTPRGPRTLRRGESVKDRSAYTAVHKASMRHRSIALDSNDADLMKLRLAYKSRPRDLQDMDSTYQSPPPTQTPLGLVKEHSSGELRQQLLKTTRRGAENETTHRDLTAEQMNEMKADDLLDLVNETTVLEEQISIVHCLWMKFGPDYDTELGCQHITVRMLMEEVHTKACEAREWALVRLTAGLLKKQLEEPQQSCYSSFVSPFELKSMIFSLLSGRLLEEYAEDGIHYSDTIRETRTGIGSFRRQIEERKSLRKSTRSVGGLEIPKEEDEDEEADEDDFQFGIWLRHRRIDGALNRVPNGFYAILWDTVHKMPHGVKINDTVLHWGLTQEMTRKEIKFALESEEALNRIAEPEYRELVVETLWLLGRLEKLVLLEQPNIPRDRPLDVDHILHVANQIFVDHNKHLETIVMECCASSNPNNTRCDGARNICKHFYDSAPAGEYGTSHYIIRALMQLYS”, the “soluble on expression in E. coli” value is reported as “not soluble”. For “MGSDKIHHHHHHMVENYNFSGVPMRLDDLTYMNPWWEGREDYHVRRWKEQRLHWKPGWLEKLSLKPFSLNFVLGPRQVGKTTGIKLLIQELLKDNPPESILYINVKVLPGHRELLNLLREFQELKEKEGVKTGYIFLDEVTSLEGWWRGVKPLIDAGLLKNDVVTVTGSSSLGVRRDIELFPGRRGSGKTIEVMPLSFPEYVEVMGLKKPELYREKVLKLFEDYLTTGGFPTSINGLPMEDLLGAYIGEIVRFGKSLEIAKETLSALIRSAPSATSFRALAGITSGYSYKVVQDYIELFTELYVLGIAYLKQGNQVLYKREKKFFFRDPLLARLFALWSGTELKEDALYEWVVQEHLYRRFGEVYYYRNSYEIDAIAGDLKVEVKAGKTHRRYPKNVRVLEKEDVPFFLLELTHESTSRF”, the “soluble on expression in E. coli” value was “not soluble”. In the case of “MKISSIDSIFAAWDGSITEARRLQSDMAERIVLKDEPNLLSEPTLLAGFDVGFEDEGRTTRAAAVLMNAGDLRLLETHVVRVPTSMPYVPGLLSFRELPALLQALTQLSRIPALVFVDGHGIAHPRRLGIAAHFGLVTNLPCIGVAKKRLVGDFVEPGTAFGEHTPILLHGTQVGWALRSKMHCKPLIISPGHKVSLHSALTWTQRCLTGYRLPEPTRQADRLASRRGQKIVSDLPSLLLEHHHHHH”, the “soluble on expression in E. coli” value is reported as “soluble”. With “GSHMASKISDNVRIKLYMEGTVNNHHFMCEAEGEGKPYEGTQMENIKVTKGGPLPFSFDILTPNCQYGSVAITKYTSGIPDYFKQSFPEGFTWERTTIYEDGAYLTTQQETKLDGNCLVYNIKILGCNFPPNGPVMQKKTQGWEPCCEMRYTRDGVLCGQTLMALKCADGNHLTCHLRTTYRSKKAAKALQMPPFHFSDHRPEIVKVSENGTLFEQHESSVARYCQTCPSKLGHN” the “soluble on expression in E. coli” value was “soluble”. In the case of “MASVPTHQSEKEKKNDELSTAILKDKVKPNRLIVDQSEQDDNSVIAVSQAKMDELGLFRGDAVILKGKKRKESVAIIVSDESCPNEKVRMNRVVRNNLRIRLGDVVSITPAPNLSYGTRIHVLPIDDTIEGLTGNLFDVFLKPYFLEAYRPLHKGDIFTVQAAMRTVEFKVVETEPAPACIVSPDTMIHYEGDPIKREEEEESMNDIGYDDLGGVRKQLAQIKEMVELPLRHPQLFKAIGIKPPRGILLFGPPGTGKTLIARAVANETGSFFFLINGPEVMSKMSGESESNLRKAFEECEKNQPAILFIDEIDAIAPKREKTNGEVERRIVSQLLTLMDGVKGRSNLVVIAATNRPNSIDGALRRFGRFDREIDIGIPDAVGRLEILRIHTKNMKLADDVDLEQIANECHGFVGADLASLCSEAALQQIREKMELIDLEDDQIDAEVLNSLAVTMENFRFAQGKSSPSALREAVVETPNTTWSDIGGLQNVKRELQELVQYPVEHPEKYLKFGMQPSRGVLFYGPPGCGKTLLAKAIANECQANFISIKGPELLTMWFGESEANVRDVFDKARAAAPCVLFFDELDSIAKARGGGAGGDGGGASDRVINQVLTEMDGMNAKKNVFIIGATNRPDIIDPAVLRPGRLDQLIYIPLPDEASRHQILKASLRKTPLSKDLDLTFLAKNTVGFSGADLTEICQRACKLAIRESIEKEIRIEKERQDRQARGEELMEDDAVDPVPEITRAHFEEAMKFARRSVTDNDIRKYEMFAQTLQQSRGFGNNFKFPGEQRGSDAPSAPVPAQDDDDLYN”, the “soluble on expression in E. coli” value is reported as “soluble”. For “MGKSELSGRLNWQALAGLKASGAEQNLYNVFNAVFEGTKYVLYEKPKHLKNLYAQVVLPDDVIKEIFNPLIDLSTTQWGVSPAFAIENTETHKILFGEIKRQDGWVEGKDPSAGRGNAHERSCKLFTPGLLKAYRTIGGINDEEILPFWVVFEGDITRDPKRVREITFWYDHYQDNYFMWRPNESGEKLVQHFNEKLKKYLD”, the “soluble on expression in E. coli” value was “soluble”. For “MSEKLQKVLARAGHGSRRELEALIRAGRVSVNGKVAVLGERLEDDNAVVRIDGHVVSVKAQEEVICRVLAYYKPEGELCTRHDPEGRRTVFDRLPKIRGSRWISVGRLDANTSGLLLFTTDGELANRLMHPSRQVEREYLVRVFGDVTEEKVRNLVRGVQLEDGMARFEDVMYAGGEGINHTFYVVINEGRNREVRRLWESQGTTVSRLKRVRYGDIFLDKKLPRGGWMELDLKQVNYLRELVELRPEKETVLNMAPDAATRKRERTRSQKIRRAVRRHEERISATPGRSGKAPARRKPGGESSTRNKVANQQQSSRKPRG”, the “soluble on expression in E. coli” value was “not soluble”. In the case of “MSLSQQVPAASFTLLDGQKLSTQDLKGKVYLVNFWATSCATCVKEMPNMIQTYNKFKGQGLEFVAVAMSYDPPMYVMNYSQTRQLPFKVAMDADGAAARAFGDVQLTPTTFLVDRNGRILRRYVGEPEWASFETLLRDTLAKQAEGLITITTDPNSSSVDKLAAALEHHHHHH”, the “soluble on expression in E. coli” value is reported as “soluble”. With “LITMNYNSPTIGMHQNLTIILPEDVTFFDSSTTAKHLKSMLLLHGLSSDETTYIRYTSIERYANEHQLAIIMPNVDHSGYANMVYGHSYYDYILEIYEYVHQILPLSRKREDNFIAGHSMGGYGTIKFALTQSDKFAKAAPLSAVFEAQRFIDLDWTDFSPQSITGNNTQIKGTELDTYYLLDQAIDANVDIPELFIMCGKEDFLYHDNLQFIETLNKKGVSYKFEDGPGNHDYAYWDRAIKRAIEWFVQ” the “soluble on expression in E. coli” value was “not soluble”. With “MSLNIAKIVREAREQSRLTTLDFATGIFDEFIQLHGDRSFRDDGAVVGGIGWLGDQAVTVVGIQKGKSLQDNLKRNFGQPHPEGYRKALRLMKQAEKFGRPVVTFINTAGAYPGVGAEERGQGEAIARNLMEMSDLKVPIIAIIIGEGGSGGALALAVADRVWMLENSIYAILSPEGFASILWKDGTRAMEAAELMKITSHELLEMDVVDKVISEVGLSSKELIKSVKKELQTELARLSQKPLEELLEERYQRFRKYEGHHHHHH” the “soluble on expression in E. coli” value was “soluble”. For “MSLSDPKFIHLRIHSDFSMVDGLSKVPPLVKKVAAMGMPAMALTDFTNLCGLVKFYSTAHNCGVKPIIGADFTLQSEEFGDELTKLTLLAKNNVGYKNLTLLISKAYLRGHVQHQPVIDKAWLVEHAEGLIVLSGGKSGEVGRALLKGNQQQVERCIEFYQTHFADHFYLELIRTGRADEESYLHFALDVAEQYDLPVVATNEVVFITEGHHHHHH”, the “soluble on expression in E. coli” value was “not soluble”. In the case of “NFTHVKGSVGSNSQYVGQVDSSMAFSDKVNGRINLEYRQADSYVDHVDSNDFFIAPTIRVLPADGHTIDIDVEYAHQELVPYRGVPSKNGKPVDLPVSTYFGGTNDYQESDSLRVAVDYEWRLNDQWVWNNRAAFNHIELEQKGTRQGKVTGNEVSQTVNNFGYDPRTTTTLQSELIWETNDNQLMLGADFNQIDIDLTLASDKTLPPQNIYNPVVGPTPDPGFKPFRDNTTTTTGVYVQDVYTWGDLSVIGNVRYDSMELEQQKAGSGKEKLDDDKVSYRAGLVYRINYDTSVYASLARSWQLPYAGIYINPKLAEFFHTDLKEVGAKAYLLDNALMLNAALFQIDQEQPQTNVDGDVIDKIEVRHQGIELEARGQITKQWDISVGYSYLDAEDKATGKKPNDVSDHLFSLWSTYQLDDNWRLGGGVKYVGDRYAGNDEAVALGDYTTVDLMAAYTTGRHKIQANAYNILDEKYILGATNGTSGLNQIGYGAPAEFMLSYGYQF”, the “soluble on expression in E. coli” value is reported as “not soluble”.

Reference: the DeepSol protein solubility set
